B1: POU domain, class 3, transcription factor 3, residues 408 to 463; numbered along this chain, P20264 (parent)
chain: KKRTSIEVSVKGALESHFLKCPKPSAQEITNLADSLQLEKEVVRVWFCNRRQKEKR

± gives the uncertainty stated by the source.

Variants of B1 are the subject of the data set. In words: abundance fitness (aPCA) (normalised: wild type 0, dead -1); higher = more abundant; growth selection in yeast, the domain comes from the species named. As to conditions: Homo sapiens.
Take KKRTSIEVSVKGALESHFLKCPKPKAQEITNLADSLQLEKEVVRVWFCNRRQKEKR [S25K]: the abundance fitness is -0.565 ± 0.11.

For the variant KKRTSIEVSVKGALESHFLKCPKPCAQEITNLADSLQLEKEVVRVWFCNRRQKEKR [S25C], the abundance fitness is -0.185 ± 0.11.

KKRTSIEVSVKGALESHFLKCPKPGAQEITNLADSLQLEKEVVRVWFCNRRQKEKR [S25G]: the abundance fitness was -0.172 ± 0.063.

Turning to KKRTSIEVSVKGALESHFLKCPKPTAQEITNLADSLQLEKEVVRVWFCNRRQKEKR [S25T], the abundance fitness was -0.075 ± 0.11.

With KKRTSIEVSVKGALESHFLKCPYPSAQEITNLADSLQLEKEVVRVWFCNRRQKEKR [K23Y], the abundance fitness was -0.05 ± 0.11.

For KKRTSIEVSVKGALESHFLKCPLPSAQEITNLADSLQLEKEVVRVWFCNRRQKEKR [K23L], the abundance fitness is -0.057 ± 0.075.

With KKRTSIEVSVKGALESHFLKCPSPSAQEITNLADSLQLEKEVVRVWFCNRRQKEKR [K23S], the abundance fitness was found to be 0.033 ± 0.069.

For KKRTSIEVSVKGALESHFLKCPWPSAQEITNLADSLQLEKEVVRVWFCNRRQKEKR [K23W], the abundance fitness was -0.084 ± 0.077.

For KKRTSIEVSVKGALESHFLKCPVPSAQEITNLADSLQLEKEVVRVWFCNRRQKEKR [K23V], the abundance fitness was -0.082 ± 0.066.

Consider KKRTSIEVSVKGALESHFLKCPAPSAQEITNLADSLQLEKEVVRVWFCNRRQKEKR [K23A], for which the abundance fitness was -0.001 ± 0.077.

Regarding KKRTSIEVSVKGALESHFLKCPMPSAQEITNLADSLQLEKEVVRVWFCNRRQKEKR [K23M], the abundance fitness was -0.031 ± 0.1.

As to KKRTSIEVSVKGALESHFLKCPGPSAQEITNLADSLQLEKEVVRVWFCNRRQKEKR [K23G], the abundance fitness was -0.252 ± 0.063.

Take KKRTSIEVSVKGALESHFLKCPEPSAQEITNLADSLQLEKEVVRVWFCNRRQKEKR [K23E]: the abundance fitness is -0.028 ± 0.072.

As to KKRTSIEVSVKGALESHFLKCPFPSAQEITNLADSLQLEKEVVRVWFCNRRQKEKR [K23F], the abundance fitness was -0.034 ± 0.12.

On to KKRTSIEVSVKGALESHFLKCPHPSAQEITNLADSLQLEKEVVRVWFCNRRQKEKR [K23H], for which the abundance fitness is -0.127 ± 0.14.

Turning to KKRTSIEVSVKGALESHFLKCPPPSAQEITNLADSLQLEKEVVRVWFCNRRQKEKR [K23P], the abundance fitness was -0.724 ± 0.2.

For KKRTSIEVSVKGALESHFLKCPQPSAQEITNLADSLQLEKEVVRVWFCNRRQKEKR [K23Q], the abundance fitness is -0.192 ± 0.12.

Consider KKRTSIEVSVKGALESHFLKCPTPSAQEITNLADSLQLEKEVVRVWFCNRRQKEKR [K23T], for which the abundance fitness is -0.052 ± 0.1.

KKRTSIEVSVKGALESHFLKCPRPSAQEITNLADSLQLEKEVVRVWFCNRRQKEKR [K23R]: the abundance fitness was -0.049 ± 0.063.

As to KKRTSIEVSVKGALESHFLKCPDPSAQEITNLADSLQLEKEVVRVWFCNRRQKEKR [K23D], the abundance fitness amounted to 0.114 ± 0.099.

As to KKRTSIEVSVKGALESHFLKCPIPSAQEITNLADSLQLEKEVVRVWFCNRRQKEKR [K23I], the abundance fitness is -0.065 ± 0.12.

For KKRTSIEVSVKGALESHFLKCPNPSAQEITNLADSLQLEKEVVRVWFCNRRQKEKR [K23N], the abundance fitness was determined as 0.248 ± 0.11.

Regarding KKRTSIEVSVKGALESHFLKCPKTSAQEITNLADSLQLEKEVVRVWFCNRRQKEKR [P24T], the abundance fitness is -0.825 ± 0.24.

Consider KKRTSIEVSVKGALESHFLKCPKKSAQEITNLADSLQLEKEVVRVWFCNRRQKEKR [P24K], for which the abundance fitness was -0.93 ± 0.23.

Regarding KKRTSIEVSVKGALESHFLKCPKFSAQEITNLADSLQLEKEVVRVWFCNRRQKEKR [P24F], the abundance fitness is -0.827 ± 0.22.

KKRTSIEVSVKGALESHFLKCPKDSAQEITNLADSLQLEKEVVRVWFCNRRQKEKR [P24D]: the abundance fitness was -0.802 ± 0.17.

Consider KKRTSIEVSVKGALESHFLKCPKRSAQEITNLADSLQLEKEVVRVWFCNRRQKEKR [P24R], for which the abundance fitness is -0.918 ± 0.094.

As to KKRTSIEVSVKGALESHFLKCPKQSAQEITNLADSLQLEKEVVRVWFCNRRQKEKR [P24Q], the abundance fitness was -0.842 ± 0.2.

In the case of KKRTSIEVSVKGALESHFLKCPKCSAQEITNLADSLQLEKEVVRVWFCNRRQKEKR [P24C], the abundance fitness is -0.83 ± 0.19.

For KKRTSIEVSVKGALESHFLKCPKASAQEITNLADSLQLEKEVVRVWFCNRRQKEKR [P24A], the abundance fitness was -0.778 ± 0.14.

KKRTSIEVSVKGALESHFLKCPKMSAQEITNLADSLQLEKEVVRVWFCNRRQKEKR [P24M]: the abundance fitness is -0.867 ± 0.16.

On to KKRTSIEVSVKGALESHFLKCPKVSAQEITNLADSLQLEKEVVRVWFCNRRQKEKR [P24V], for which the abundance fitness is -0.792 ± 0.093.

As to KKRTSIEVSVKGALESHFLKCPKESAQEITNLADSLQLEKEVVRVWFCNRRQKEKR [P24E], the abundance fitness is -0.871 ± 0.17.

In the case of KKRTSIEVSVKGALESHFLKCPKISAQEITNLADSLQLEKEVVRVWFCNRRQKEKR [P24I], the abundance fitness was -0.731 ± 0.22.

On to KKRTSIEVSVKGALESHFLKCPKLSAQEITNLADSLQLEKEVVRVWFCNRRQKEKR [P24L], for which the abundance fitness was -0.881 ± 0.099.

With KKRTSIEVSVKGALESHFLKCPKGSAQEITNLADSLQLEKEVVRVWFCNRRQKEKR [P24G], the abundance fitness is -1.05 ± 0.11.

In the case of KKRTSIEVSVKGALESHFLKCPKSSAQEITNLADSLQLEKEVVRVWFCNRRQKEKR [P24S], the abundance fitness was -0.874 ± 0.13.

Take KKRTSIEVSVKGALESHFLKCPKPSAQCITNLADSLQLEKEVVRVWFCNRRQKEKR [E28C]: the abundance fitness was -0.368 ± 0.12.

For KKRTSIEVSVKGALESHFLKCPKPSAQAITNLADSLQLEKEVVRVWFCNRRQKEKR [E28A], the abundance fitness is -0.118 ± 0.083.

For KKRTSIEVSVKGALESHFLKCPKPSAQDITNLADSLQLEKEVVRVWFCNRRQKEKR [E28D], the abundance fitness is -0.256 ± 0.15.

For KKRTSIEVSVKGALESHFLKCIKPSAQEITNLADSLQLEKEVVRVWFCNRRQKEKR [P22I], the abundance fitness is -0.572 ± 0.23.

Take KKRTSIEVSVKGALESHFLKCLKPSAQEITNLADSLQLEKEVVRVWFCNRRQKEKR [P22L]: the abundance fitness was -0.732 ± 0.41.

With KKRTSIEVSVKGALESHFLKCRKPSAQEITNLADSLQLEKEVVRVWFCNRRQKEKR [P22R], the abundance fitness is -0.398 ± 0.14.

Turning to KKRTSIEVSVKGALESHFLKCYKPSAQEITNLADSLQLEKEVVRVWFCNRRQKEKR [P22Y], the abundance fitness was -0.383 ± 0.47.

As for KKRTSIEVSVKGALESHFLKCVKPSAQEITNLADSLQLEKEVVRVWFCNRRQKEKR [P22V], the abundance fitness was -0.641 ± 0.18.

As to KKRTSIEVSVKGALESHFLKCSKPSAQEITNLADSLQLEKEVVRVWFCNRRQKEKR [P22S], the abundance fitness is -0.35 ± 0.17.

Turning to KKRTSIEVSVKGALESHFLKCKKPSAQEITNLADSLQLEKEVVRVWFCNRRQKEKR [P22K], the abundance fitness was -0.432 ± 0.48.

Values taken from the Human Domainome abundance scans (Beltran et al. 2025).
